The source of these data is patent US7345160B2, “Aequorin and obelin mutants with differing wavelengths and bioluminescence” (University of Kentucky Research Foundation, priority 2004, dated 2008).

Residue numbers refer to the chain shown, from its start. “And” between values parts separate entries of the source, which are not always exact repeats. Equal values may be shown once. Read-outs that look alike come from different tables or passages of the source.

For series [1] the following is noted: general statement, cited from earlier work.
A short description of series [2]: Emission spectra (emission maximum) of purified aequorin mutants with coelenterazine analogues. Format: physicochemical. An excerpt:
In order to detect the inventive aequorin mutants, the use of an instrument capable of detecting flash-type bioluminescence over a wide range of wavelengths is envisaged. For example, a fiber optic sensor collects the bioluminescence signal emitted by the aequorin and transmits it to a grating that directs the beam of light to onto an optical array detector. In one embodiment, the system to acquire the spectra from the flash kinetics of aequorin and obelin luminescence consists of a microtiter plate reader. The optical path of the instrument is replaced with a high collecting efficiency fiber optic bundle. This fiberoptic bundle carries the emitted light into an Oriel Instruments Fixed Imaging Compact Spectrograph, the dispersed light is then fed into an ANDOR cooled CCD detector. See for example the SpectroSystem By Sciencewares, Inc (East Falmouth, Mass.).
Cysteine free aequorin (Mutant S), Y132I Mutant S aequorin, Aeq5 (Mutant S with a cysteine at position 5), and wild type Aequorin were purified and multiple spectra taken and averaged (See FIG. 1). […] Mutant S had emission maximums ranging from 448 nm to 491 nm. Y132I Mutant S has emission maximums ranging from 453 nm to 487 nm. Aequorin 5 had emission maximums ranging from 466 nm to 491 nm. The greatest spread in emission maximum thus far has been between MutS/CTZ i and MutS/CTZ hcp (448 nm, 491 nm, respectively (43 nm range)). […] The greatest spread in emission maxima wavelengths so far with the same coelenterazine is CTZ hcp with Aeq5 (476 nm) and MutS (448 nm) being 28 nm. Also, the maximum spread with the same CTZ's and different aequorins is 19 nm for i, ip, and f.
Mutant S, Mutant S Y132I and Aeq 5 final emission spectrums were the result of the average of three trials. Wild type aequorins final spectrum was the result of two trials. All mutants, except Aeq5, were purified to >95% purity using SDS-PAGE and silver staining. All coelenterazine analogues were diluted to 100 micrograms/ML methanol. Solvent composition, coelenterazine concentration, temperature, and incubation time, were the same for all trials except with N coelenterazine, which required a higher concentration of aequorin than the other coelenterazines to show activity. Concentrations of the different mutants were not identical. Half life determination of Y132I Mut S with coelenterazines i, ip, h, hcp, cp, fcp, f, and native were 23, 0.9, 0.4, 0.2, 0.6, 0.7, 2.6, and 1.2 seconds, respectively.

For series [3] the following is noted: in solution at 4° C. for over a month; cited from earlier work.
Series [4] in a line: Emission spectra of obelin and obelin mutants with coelenterazine analogues. Format: physicochemical. The note with it: all coelenterazine analogues. From the text: Obelin mutants C75S/C51/S, C75S/C67, C158S, C151S, and wild type obelin were purified and multiple spectra taken and averaged (See FIG. 20).

B1: wild type aequorin: native recombinant aequorin encoded by SEQ ID NO: 1, purchased commercially (Aqualite from Molecular Probes) (protein, listed as Aequorea victoria)
chain: VKLTSDFDNPRWIGRHKHMFNFLDVNHNGKISLDEMVYKASDIVINNLGATPEQAKRHKDAVEAFFGGAGMKYGVETDWPAYIEGWKKLATDELEKYAKNEPTLIRIWGDALFDIVDKDQNGAITLDEWKAYTKAAGIIQSSEDCEETFRVCDIDESGQLDVDEMTRQHLGFWYTMDPACEKLYGGAVP
On to B1, for which the figures for the “emission wavelength of aequorin” value in series [1], in series [1] (listed as aequorin) and in series [1] (listed as recombinant aequorin) were 469-472 nm, 469 nm and 469 nm, respectively. Moreover, the emission maximum in series [2] (over all coelenterazine analogues (i, ip, h, hcp, cp, fcp, f, n, native)) is listed as 472 nm; in series [2] (over all coelenterazine analogues (i, ip, h, hcp, cp, fcp, f, n, native), listed as Wild type aequorin), “the same emission maxima for all coelenterazines analogues”; in series [2] (over all coelenterazine analogues (i, ip, h, hcp, cp, fcp, f, n, native), listed as native recombinant aequorin), 472 nm. Further, the “original activity retained on storage” value in series [3] is reported as 85%.

B2: Mutant S: aequorin mutant where the three cysteine residues are replaced with serine (positions 145, 152, 180); SEQ ID NO: 4 (protein, listed as Aequorea victoria)
chain: B1 chain with C145S, C152S, C180S
Turning to B2, the “spread in emission maximum between CTZ i and CTZ hcp” value in series [2] (same protein, CTZ i vs CTZ hcp) is reported as 43 nm. The emission maximum is 491 nm and 448 nm in series [2] (with CTZ hcp, listed as MutS); 448 nm in series [2] (with CTZ i).

B3: Wild type obelin: bioluminescent protein from the marine hydroid Obelia longissima; SEQ ID NO: 6 (protein, listed as Obelia longissima)
chain: MSSKYAVKLKTDFDNPRWIKRHKHMFDFLDINGNGKITLDEIVSKASDDICAKLEATPEQTKRHQVCVEAFFRGCGMEYGKEIAFPQFLDGWKQLATSELKKWARNEPTLIREWGDAVFDIFDKDGSGTITLDEWKAYGKISGISPSQEDCEATFRHCDLDNSGDLDVDEMTRQHLGFWYTLDPEADGLYGNGVP
Regarding B3, the emission maxima in series [4] is 469 nm.
